# Measured values published in the supplement of paper PMC7125110.
# ± gives the standard error. Fewer inactive variants are shown than the library holds.
# B1: glmS ribozyme (parent)
# chain: AUAAAAGCGCCAGAACUACAGAAAUGUAGUUGACGAGGAGGAGGUUUAUCGAAUUUUCGGCGGAUGCCUCCAAA
# Experiments:
# Conditions in all cases: with glucosamine-6-phosphate
# glucosamine-6-phosphate [1] = variants of: B1; experiment: self-cleavage kobs at 40 uM GlcN6P; higher = faster cleavage; RNA array
# How it was run: (§1)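 E. coli RNA polymerase transcribed barcoded ribozyme variants in situ on sequenced MiSeq chips, which were tracked via a hybridised Cy3 probe at 37 °C. Tiles were imaged over ~14 h after glucosamine-6-phosphate (40 μM to 10 mM) in HEPES/KCl/Mg(OAc)2 buffer was flowed in. Normalised per-tile medians were fit to one- or two-exponential decays for kobs, and kcat and KM came from weighted Michaelis–Menten fits.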
# glucosamine-6-phosphate [2] = variants of: B1; experiment: self-cleavage kobs at 160 uM GlcN6P; higher = faster cleavage; RNA array
# How it was run: as §1
# glucosamine-6-phosphate [3] = variants of: B1; experiment: self-cleavage kobs at 2500 uM GlcN6P; higher = faster cleavage; RNA array
# How it was run: as §1
# glucosamine-6-phosphate [4] = variants of: B1; experiment: self-cleavage kobs at 10000 uM GlcN6P; higher = faster cleavage; RNA array
# How it was run: as §1
# glucosamine-6-phosphate [5] = variants of: B1; experiment: self-cleavage kobs at 640 uM GlcN6P; higher = faster cleavage; RNA array
# How it was run: as §1
Variant,self-cleavage kobs at 40 uM GlcN6P (glucosamine-6-phosphate [1]),self-cleavage kobs at 160 uM GlcN6P (glucosamine-6-phosphate [2]),self-cleavage kobs at 2500 uM GlcN6P (glucosamine-6-phosphate [3]),self-cleavage kobs at 10000 uM GlcN6P (glucosamine-6-phosphate [4]),self-cleavage kobs at 640 uM GlcN6P (glucosamine-6-phosphate [5])
C10U A15C C34A A36G G43C U49C,< 1e-05 s⁻¹,< 1e-05 s⁻¹,< 1e-05 s⁻¹,< 1e-05 s⁻¹,–
A6U A12U G32C A33C C50A,< 1e-05 s⁻¹,–,–,< 1e-05 s⁻¹,–
A12U C16A G51C,< 1e-05 s⁻¹,–,–,–,–
A36U A39G G51A A53U,< 1e-05 s⁻¹,–,< 1e-05 s⁻¹,< 1e-05 s⁻¹,< 1e-05 s⁻¹
A15G A33U C71U,< 1e-05 s⁻¹,–,–,5.87e-05 ± 1.3e-05 s⁻¹,–
C8U U47A,< 1e-05 s⁻¹,< 1e-05 s⁻¹,–,< 1e-05 s⁻¹,< 1e-05 s⁻¹
A6G G13C U31G A39C U45G,< 1e-05 s⁻¹,–,–,< 1e-05 s⁻¹,–
C16G G35C A36U A42U C50U,< 1e-05 s⁻¹,–,–,< 1e-05 s⁻¹,–
C16A G44A,< 1e-05 s⁻¹,< 1e-05 s⁻¹,–,–,–
G59C G66U,< 1e-05 s⁻¹,< 1e-05 s⁻¹,–,< 1e-05 s⁻¹,< 1e-05 s⁻¹
G66A C71U,0.000673 ± 0.00012 s⁻¹,–,–,0.0215 ± 0.007 s⁻¹,0.00361 ± 0.0008 s⁻¹
G40C G59U C68A C71A,< 1e-05 s⁻¹,–,–,–,–
C34G G44C,< 1e-05 s⁻¹,–,< 1e-05 s⁻¹,< 1e-05 s⁻¹,< 1e-05 s⁻¹
C34G A39C U46G,< 1e-05 s⁻¹,< 1e-05 s⁻¹,< 1e-05 s⁻¹,< 1e-05 s⁻¹,–
A33G A42U,< 1e-05 s⁻¹,< 1e-05 s⁻¹,< 1e-05 s⁻¹,< 1e-05 s⁻¹,< 1e-05 s⁻¹
G29U G41U G51A,< 1e-05 s⁻¹,–,< 1e-05 s⁻¹,–,–
A53C U57C C67G,< 1e-05 s⁻¹,–,–,< 1e-05 s⁻¹,–
G43A A64U,< 1e-05 s⁻¹,< 1e-05 s⁻¹,< 1e-05 s⁻¹,< 1e-05 s⁻¹,< 1e-05 s⁻¹
C11G G41A,< 1e-05 s⁻¹,–,< 1e-05 s⁻¹,< 1e-05 s⁻¹,< 1e-05 s⁻¹
U45G U54C G63C A64U U65G,< 1e-05 s⁻¹,–,–,–,–
G7U G60C,< 1e-05 s⁻¹,< 1e-05 s⁻¹,–,< 1e-05 s⁻¹,< 1e-05 s⁻¹
C10A A14G G44C,< 1e-05 s⁻¹,–,< 1e-05 s⁻¹,< 1e-05 s⁻¹,–
C11A G37C G60A,< 1e-05 s⁻¹,–,–,–,–
G13C A39C U47G,< 1e-05 s⁻¹,< 1e-05 s⁻¹,< 1e-05 s⁻¹,–,–

Variant,self-cleavage kobs at 40 uM GlcN6P (glucosamine-6-phosphate [1]),self-cleavage kobs at 160 uM GlcN6P (glucosamine-6-phosphate [2]),self-cleavage kobs at 2500 uM GlcN6P (glucosamine-6-phosphate [3]),self-cleavage kobs at 10000 uM GlcN6P (glucosamine-6-phosphate [4]),self-cleavage kobs at 640 uM GlcN6P (glucosamine-6-phosphate [5])
U47C U57G,< 1e-05 s⁻¹,–,–,–,–
C8G A14G U31C,< 1e-05 s⁻¹,–,–,–,–
A6G U30C G35A A39G G40A G66A,< 1e-05 s⁻¹,–,–,< 1e-05 s⁻¹,–
G32U G59A,< 1e-05 s⁻¹,< 1e-05 s⁻¹,–,–,< 1e-05 s⁻¹
C50G A53U G66A C67A,0.000122 ± 4.6e-05 s⁻¹,–,–,0.000135 ± 5.1e-05 s⁻¹,–
C8A U45C,< 1e-05 s⁻¹,–,< 1e-05 s⁻¹,–,< 1e-05 s⁻¹
G7U G9C A42G A52U,< 1e-05 s⁻¹,–,–,–,< 1e-05 s⁻¹
G9C A36U,< 1e-05 s⁻¹,–,< 1e-05 s⁻¹,–,< 1e-05 s⁻¹
C10A G13A U30C G40A,< 1e-05 s⁻¹,–,–,–,–
A6U G13C U69C,< 1e-05 s⁻¹,–,–,< 1e-05 s⁻¹,–
C11G C16A U69G,6.17e-05 ± 2.3e-05 s⁻¹,–,–,5.6e-05 ± 1.7e-05 s⁻¹,–
G38U U56G,< 1e-05 s⁻¹,–,< 1e-05 s⁻¹,< 1e-05 s⁻¹,–
A6U C11A A53U,< 1e-05 s⁻¹,–,–,< 1e-05 s⁻¹,< 1e-05 s⁻¹
A6U G7U C58G U69G,0.000141 ± 4.3e-05 s⁻¹,–,–,0.000123 ± 3.5e-05 s⁻¹,–
C11A A33U U54A,< 1e-05 s⁻¹,–,–,–,–
G43C U56C,< 1e-05 s⁻¹,< 1e-05 s⁻¹,–,< 1e-05 s⁻¹,< 1e-05 s⁻¹
G9A C11U,< 1e-05 s⁻¹,< 1e-05 s⁻¹,< 1e-05 s⁻¹,< 1e-05 s⁻¹,< 1e-05 s⁻¹
A6U C11G G29C U45C,< 1e-05 s⁻¹,–,–,–,–
C50G C67U C68U C71U,0.000172 ± 4.1e-05 s⁻¹,–,0.000127 ± 3e-05 s⁻¹,7.29e-05 ± 1.3e-05 s⁻¹,0.000393 ± 0.00011 s⁻¹
U46A G60U,< 1e-05 s⁻¹,< 1e-05 s⁻¹,< 1e-05 s⁻¹,–,–
G44A G59A,< 1e-05 s⁻¹,< 1e-05 s⁻¹,–,< 1e-05 s⁻¹,< 1e-05 s⁻¹
G37U A42U,< 1e-05 s⁻¹,< 1e-05 s⁻¹,–,–,< 1e-05 s⁻¹
A33G G41C U47C,< 1e-05 s⁻¹,–,< 1e-05 s⁻¹,–,< 1e-05 s⁻¹
U30G U69C,0.000101 ± 2.9e-05 s⁻¹,–,6.49e-05 ± 3.1e-05 s⁻¹,0.000535 ± 0.00011 s⁻¹,0.00045 ± 0.00019 s⁻¹
